Experiment [1] has as its target T1, Human cMET (recombinant, soluble monomeric) (human, UniProt P08581 25-932).
T1 construct: also called His-tagged cMET antigen
Kind of experiment: ELISA, antigen coated at 1 ug/mL, anti-human Fab-HRP detection, A450. Here is the method:
(§1) Specificity for EGFR and cMET species paralogs and closely related family members was determined by ELISA. Briefly, antigen solutions were prepared in PBS at 1 μg/mL and 50 microliters was coated onto half area ELISA assay plates. Plates were washed and blocked with 1% BSA in PBS containing 0.005% Tween-20 (PBS-T) for one hour at room temperature. […] Wells were incubated with 50 microliters of the indicated primary antibodies diluted in PBS-T in a 1:3 dilution series, starting at 10 μg/mL and ending at 0.002 ug/mL, except for the HER4 binding mAb control, MAB1131, for which the series started at 1 μg/mL. The wells were washed 4 times in PBS-T, then 50 μl of goat anti-human Fab HRP-labeled secondary antibody, diluted 1:5000 in PBS-T, was added to each well and incubated for one hour at room temperature. […] 50 microliters of TMB stop solution was added to all wells and the absorbance was read at 450 nm on a SpectraMax M5 microplate reader. Data were analyzed in the SoftMax Pro 5 software and plotted using GraphPad Prism 7 graphing software.
(§2) To determine the species cross reactivity, ELISA assays were carried out as described above.
(ELISA stands for enzyme-linked immunosorbent assay.)

The target of the next experiment is Mouse cMET (recombinant) (mouse, UniProt P16056 25-931, limits assumed). Described as above. The protocol:
as §1, §2

For experiment [2], the target named is T2, Cynomolgus monkey cMET (recombinant, soluble monomeric) (cynomolgus monkey, UniProt A0M8R7 25-932 (Papio anubis entry)).
T2 construct: also called cyno c-Met
T2 sequence (A0M8R7 25-932 S170N/I621T): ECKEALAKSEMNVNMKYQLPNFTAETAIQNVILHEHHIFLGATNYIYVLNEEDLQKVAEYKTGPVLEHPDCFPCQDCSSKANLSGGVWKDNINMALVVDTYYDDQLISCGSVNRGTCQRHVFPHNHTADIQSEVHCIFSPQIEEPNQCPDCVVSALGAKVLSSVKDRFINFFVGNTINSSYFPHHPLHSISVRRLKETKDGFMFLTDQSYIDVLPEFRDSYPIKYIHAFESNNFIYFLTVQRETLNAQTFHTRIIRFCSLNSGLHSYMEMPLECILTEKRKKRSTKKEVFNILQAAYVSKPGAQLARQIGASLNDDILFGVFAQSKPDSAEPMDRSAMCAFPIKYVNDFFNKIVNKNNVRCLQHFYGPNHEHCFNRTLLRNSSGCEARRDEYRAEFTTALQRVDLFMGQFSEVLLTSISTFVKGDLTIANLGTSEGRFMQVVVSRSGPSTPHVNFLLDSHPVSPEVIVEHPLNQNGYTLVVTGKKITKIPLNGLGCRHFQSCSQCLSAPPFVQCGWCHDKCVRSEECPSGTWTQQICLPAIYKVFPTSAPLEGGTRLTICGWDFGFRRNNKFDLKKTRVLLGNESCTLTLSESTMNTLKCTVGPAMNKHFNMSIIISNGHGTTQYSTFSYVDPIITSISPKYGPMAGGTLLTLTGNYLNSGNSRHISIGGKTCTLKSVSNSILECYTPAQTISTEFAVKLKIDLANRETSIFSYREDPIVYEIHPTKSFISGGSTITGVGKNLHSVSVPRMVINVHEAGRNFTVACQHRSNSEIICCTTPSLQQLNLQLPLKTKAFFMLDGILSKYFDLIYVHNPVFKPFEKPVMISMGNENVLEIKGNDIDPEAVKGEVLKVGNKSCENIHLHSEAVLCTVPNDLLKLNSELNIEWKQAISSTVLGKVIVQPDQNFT
The description is as above. The protocol: as §1, §2

Another experiment has as its target T3, HER4 (Homo sapiens (Human), UniProt Q15303 26-651).
T3 construct: also called EGFR HER family protein HER4
T3 sequence: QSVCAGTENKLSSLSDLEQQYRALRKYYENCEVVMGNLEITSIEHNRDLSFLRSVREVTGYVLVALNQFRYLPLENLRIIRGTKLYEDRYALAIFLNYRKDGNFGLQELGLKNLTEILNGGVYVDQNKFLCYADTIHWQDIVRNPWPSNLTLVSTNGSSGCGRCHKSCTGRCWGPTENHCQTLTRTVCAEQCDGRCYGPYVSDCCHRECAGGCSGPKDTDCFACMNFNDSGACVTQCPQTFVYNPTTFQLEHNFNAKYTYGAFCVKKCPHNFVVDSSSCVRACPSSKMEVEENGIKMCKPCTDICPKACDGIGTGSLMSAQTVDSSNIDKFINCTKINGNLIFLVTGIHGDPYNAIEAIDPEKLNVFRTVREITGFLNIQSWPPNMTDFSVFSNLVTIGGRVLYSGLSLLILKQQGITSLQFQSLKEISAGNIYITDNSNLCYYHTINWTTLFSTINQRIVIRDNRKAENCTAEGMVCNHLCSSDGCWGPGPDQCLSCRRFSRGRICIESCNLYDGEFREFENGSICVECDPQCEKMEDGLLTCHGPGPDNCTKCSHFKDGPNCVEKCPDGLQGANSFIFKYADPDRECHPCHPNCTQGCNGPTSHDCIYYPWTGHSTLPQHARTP
Described as above.

For another experiment, the target named is T4, HER3 (Homo sapiens (Human), UniProt P21860 20-643).
T4 construct: also called EGFR HER family protein HER3
The experiment is described as above.

Experiment [3] concerns the target T5, Cynomolgus monkey EGFR (recombinant, soluble monomeric) (cynomolgus monkey, UniProt P55245 25-645 (rhesus entry)).
T5 construct: also called cyno EGFR
The experiment can be described thus: SPR (Biacore T200), antibody captured on anti-human IgG, soluble monomeric antigen as analyte, 25 C. Here is the method:
(§3) Mouse anti-human IgG was immobilized on a CM4 sensor chip with a final surface density of ˜2000 resonance units (RUs). A reference flow cell surface was also prepared on this sensor chip using identical immobilization protocol. Test and control article antibodies were prepared at 5-20 nM in instrument buffer (HBS-EP buffer; 0.01M HEPES, pH 7.4, 0.15M NaCl, 3 mM EDTA, and 0.005% P-20), along with 3-fold serial dilutions of purified EGFR (0.27-200 nM human, 0.4-900 nM cyno, and 4-1000 nM murine) or cMET proteins (0.27 to 66 nM human and 0.27-22 nM cyno) in instrument buffer. A sequential approach was utilized for kinetic measurements. Antibodies were first injected over the capture surface, at a flow rate of 10 μL/minute. Once the binding of the captured antibody stabilized, a single concentration of the analyte was injected over both capture and reference surfaces, at a flow rate of 75 μL/minute. The resulting binding response curves yielded the association phase data. Following the injection of analyte, the flow was then switched back to instrument buffer for 15 minutes to permit the collection of dissociation phase data, followed by a 1-minute pulse of 10 mM glycine, pH 1.5, to regenerate the antibody-captured surface on the chip. Binding responses against test and control article antibodies were recorded from duplicate injections of each concentration of analyte. In addition, several buffer injections were interspersed throughout the injection series. Select buffer injections were used along with the reference cell responses to correct the raw data sets for injection artifacts and/or nonspecific binding interactions, commonly referred to as “double referencing”. Corrected binding data were globally fit to a 1:1 binding model (Biacore T200 Evaluation software 2.0, GE Healthcare, Pittsburgh, PA).
(§4) Kinetic measurements to soluble monomeric forms of EGFR and cMET were performed using a BIACore instrument.
Background: SPR reads the build-up and loss of mass on a sensor chip optically.

The target in experiment [4] is T6, Mouse EGFR (recombinant, soluble monomeric) (mouse, UniProt Q01279 25-647).
T6 construct: also called murine EGFR
Described as above. The protocol: as §3, §4

Experiment [5] has as its target T7, Human EGFR (recombinant, soluble monomeric) (human, UniProt P00533 25-645).
T7 construct: also called EGFR antigen; recombinant human EGFR
Described as above. Here is the method:
as §3, §4

A further experiment addresses T8, HER2 (Homo sapiens (Human), UniProt P04626 23-652).
T8 construct: also called EGFR HER family protein HER2
The experiment can be described thus: ELISA, antigen coated at 1 ug/mL, anti-human Fab-HRP detection, A450.

In experiment [6] the target is c-MET on human tumour cells (NCI-H1975, HCC827) (human) (UniProt P08581). Kind of experiment: cell-based or functional assay.
Chain of c-MET on human tumour cells (NCI-H1975, HCC827) (human) (P08581 25-1390): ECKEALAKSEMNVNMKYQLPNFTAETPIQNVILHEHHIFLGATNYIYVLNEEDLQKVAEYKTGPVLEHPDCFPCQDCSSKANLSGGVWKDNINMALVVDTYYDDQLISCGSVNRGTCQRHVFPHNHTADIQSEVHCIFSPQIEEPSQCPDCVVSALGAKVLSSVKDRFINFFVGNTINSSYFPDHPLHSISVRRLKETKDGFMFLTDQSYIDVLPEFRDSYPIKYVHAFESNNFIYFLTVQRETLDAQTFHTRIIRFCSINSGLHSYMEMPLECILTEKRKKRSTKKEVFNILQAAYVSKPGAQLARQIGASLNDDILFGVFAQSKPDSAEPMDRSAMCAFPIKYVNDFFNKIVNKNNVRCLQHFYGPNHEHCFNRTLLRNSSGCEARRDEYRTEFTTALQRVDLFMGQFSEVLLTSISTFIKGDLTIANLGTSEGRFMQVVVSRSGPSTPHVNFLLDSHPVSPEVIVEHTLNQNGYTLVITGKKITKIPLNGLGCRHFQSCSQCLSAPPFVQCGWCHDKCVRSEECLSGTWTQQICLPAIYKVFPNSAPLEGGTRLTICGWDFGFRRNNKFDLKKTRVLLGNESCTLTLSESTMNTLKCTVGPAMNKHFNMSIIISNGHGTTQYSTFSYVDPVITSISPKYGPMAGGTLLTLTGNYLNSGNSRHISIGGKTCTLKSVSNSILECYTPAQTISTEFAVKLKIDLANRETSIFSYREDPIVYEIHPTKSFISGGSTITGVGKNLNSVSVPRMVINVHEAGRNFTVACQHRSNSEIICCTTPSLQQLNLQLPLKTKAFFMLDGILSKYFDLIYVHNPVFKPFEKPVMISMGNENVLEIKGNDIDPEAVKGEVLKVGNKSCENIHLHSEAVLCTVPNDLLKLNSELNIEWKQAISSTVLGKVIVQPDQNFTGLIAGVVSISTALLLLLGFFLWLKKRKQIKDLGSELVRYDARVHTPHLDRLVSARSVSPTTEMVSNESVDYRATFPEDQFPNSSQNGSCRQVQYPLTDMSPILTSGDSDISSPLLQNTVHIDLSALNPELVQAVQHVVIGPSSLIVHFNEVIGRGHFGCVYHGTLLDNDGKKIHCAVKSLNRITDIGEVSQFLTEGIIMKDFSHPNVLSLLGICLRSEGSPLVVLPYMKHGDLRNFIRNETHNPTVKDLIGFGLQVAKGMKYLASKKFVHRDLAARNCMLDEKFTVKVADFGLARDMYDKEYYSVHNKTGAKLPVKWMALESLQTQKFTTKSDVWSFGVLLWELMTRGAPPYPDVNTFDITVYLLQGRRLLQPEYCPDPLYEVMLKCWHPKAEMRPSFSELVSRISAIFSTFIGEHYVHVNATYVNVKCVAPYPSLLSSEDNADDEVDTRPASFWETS
The target in experiment [7] is EGFR and c-MET co-expressed on HCC827 cells. Kind of experiment: confocal fluorescence microscopy, AF647-labelled antibody pre-bound to cells, T=0.
Experiment [8] addresses EGFR and c-MET co-expressed on NCI-H1975 cells. The experiment can be described thus: confocal fluorescence microscopy, AF647-labelled antibody pre-bound to H1975 cells, T=0.
Experiment [9] concerns the target T1, Human cMET (recombinant, soluble …). The experiment can be described thus: SPR (Biacore T200), antibody captured on anti-human IgG, soluble monomeric antigen as analyte, 25 C. Here is the method: as §3, §4
Experiment [10] deals with T2, Cynomolgus monkey cMET (recombinant, …). The experiment is described as above. Here is the method:
as §3, §4

Experiment [11] has as its target EGFR and c-MET co-expressed on HCC827 cells. Kind of experiment: confocal fluorescence microscopy, AF647-labelled antibody pre-bound to HCC827 cells, T=0.

T1 sequence (P08581 25-932): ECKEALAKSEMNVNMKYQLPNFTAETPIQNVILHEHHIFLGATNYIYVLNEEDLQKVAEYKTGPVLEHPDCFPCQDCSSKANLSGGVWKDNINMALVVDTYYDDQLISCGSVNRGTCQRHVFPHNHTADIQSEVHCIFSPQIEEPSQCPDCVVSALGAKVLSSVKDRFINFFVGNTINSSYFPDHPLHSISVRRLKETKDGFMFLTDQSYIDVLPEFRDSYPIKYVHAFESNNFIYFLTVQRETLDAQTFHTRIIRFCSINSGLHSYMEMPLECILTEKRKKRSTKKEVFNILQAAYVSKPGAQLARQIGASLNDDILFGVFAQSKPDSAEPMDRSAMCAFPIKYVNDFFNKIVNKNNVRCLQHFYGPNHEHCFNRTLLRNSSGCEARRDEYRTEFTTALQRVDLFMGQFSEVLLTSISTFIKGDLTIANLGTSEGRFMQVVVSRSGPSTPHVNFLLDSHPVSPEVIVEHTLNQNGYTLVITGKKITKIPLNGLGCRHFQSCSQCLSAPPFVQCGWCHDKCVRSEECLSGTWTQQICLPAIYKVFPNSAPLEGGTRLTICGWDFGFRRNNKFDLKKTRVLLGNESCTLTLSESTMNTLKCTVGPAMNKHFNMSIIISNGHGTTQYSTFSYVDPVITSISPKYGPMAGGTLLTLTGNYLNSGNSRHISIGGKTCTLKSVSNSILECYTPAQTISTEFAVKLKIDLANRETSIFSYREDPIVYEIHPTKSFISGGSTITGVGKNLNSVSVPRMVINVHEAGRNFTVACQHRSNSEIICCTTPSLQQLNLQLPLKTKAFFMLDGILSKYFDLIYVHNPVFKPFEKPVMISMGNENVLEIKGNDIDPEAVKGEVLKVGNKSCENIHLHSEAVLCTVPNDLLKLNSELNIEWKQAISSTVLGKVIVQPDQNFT
Chain of Mouse cMET (recombinant) (P16056 25-931 limits assumed): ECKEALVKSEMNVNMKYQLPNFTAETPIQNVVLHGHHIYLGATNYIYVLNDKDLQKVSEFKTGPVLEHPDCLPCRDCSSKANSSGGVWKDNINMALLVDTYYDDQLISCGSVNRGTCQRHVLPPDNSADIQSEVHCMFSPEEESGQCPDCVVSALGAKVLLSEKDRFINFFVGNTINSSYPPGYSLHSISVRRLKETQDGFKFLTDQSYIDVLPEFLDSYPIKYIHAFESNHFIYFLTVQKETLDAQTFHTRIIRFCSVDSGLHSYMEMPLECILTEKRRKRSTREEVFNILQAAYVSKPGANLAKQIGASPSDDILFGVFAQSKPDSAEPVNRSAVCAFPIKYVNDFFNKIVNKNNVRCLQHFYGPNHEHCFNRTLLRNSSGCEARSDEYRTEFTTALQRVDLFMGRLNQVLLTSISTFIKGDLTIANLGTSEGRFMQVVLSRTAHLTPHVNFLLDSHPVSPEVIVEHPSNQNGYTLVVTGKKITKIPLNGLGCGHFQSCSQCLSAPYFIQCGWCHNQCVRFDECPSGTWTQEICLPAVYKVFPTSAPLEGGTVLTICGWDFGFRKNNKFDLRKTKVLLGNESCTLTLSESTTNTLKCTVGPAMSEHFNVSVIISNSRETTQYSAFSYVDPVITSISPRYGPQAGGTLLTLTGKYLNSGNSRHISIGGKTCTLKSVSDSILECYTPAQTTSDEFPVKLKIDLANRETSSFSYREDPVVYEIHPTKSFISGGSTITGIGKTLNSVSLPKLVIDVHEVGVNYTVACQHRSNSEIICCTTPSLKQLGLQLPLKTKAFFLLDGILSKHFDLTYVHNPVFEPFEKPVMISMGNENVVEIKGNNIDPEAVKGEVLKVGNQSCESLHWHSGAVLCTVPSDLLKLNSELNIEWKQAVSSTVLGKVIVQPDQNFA

B1: QD6 IgG (antibody, V domains shown)
VH: QVQLVQSGAEVKKPGSSVKVSCKASGGTFSDNDFSWVRQAPGQGLEWMGAIVAVVRTETYAQKFQDRVKITADISTRTTYMELSSLRSEDTAVYYCARRLMSAISGPGAPLLMWGQGTLVTVSS
VL: QSALTQPRSVSGSPGQSVTISCTGTSSDVGGYNYVSWYQQHPGKAPKLMIYDVSERPSGVPDRFSGSKSGNTASLTISGLQAEDEADYYCFSYTSSDTLEIFGGGTKLTVL
notes: Only variable domains are tied to the parental IgG; also called QD06; anti-EGFR antibody clone QD6
On to B1, for which the binding result (in [1]; in the experiment with Mouse cMET (recombinant); in experiment [2]; with HER4; in the experiment with HER3; with HER2) was “no binding (tested: 10 ug/ml)” in each case. For the same molecule, the Kd – broadly, the concentration at which binding is half-saturated – in experiment [3] came out at 2.5 nM; in experiment [4], 4.4 nM; in experiment [5], 2 nM. Also, the results for the koff in experiment [3], in experiment [4] and in [5] were 0.000288 s⁻¹, 0.000735 s⁻¹ and 0.000292 s⁻¹, respectively. In addition, the results for the kon in experiment [3], in experiment [4] and in experiment [5] were 114000 M⁻¹ s⁻¹, 167000 M⁻¹ s⁻¹ and 148000 M⁻¹ s⁻¹, respectively.

B2: B09/R347 (bispecific antibody, part only; not given: non-binding arm and constant regions, V domains shown, not shown: another chain or arm of the molecule; a dimerising Fc or GST; small tags and cut ends)
VH: QVQLVQSGAEVKKPGASVKVSCKASGYTFTDYYIHWVRQATGQGLEWMGWMNPNSGNTGYAQKFQGRVTMTRDTSISTAYMELSSLRSEDTAVYYCARGQGYTHSWGQGTMVTVSS
VL: DIQMTQSPSTLSASVGDRVTITCRASEGIYHWLAWYQQKPGKAPKLLIYKASSLASGVPSRFSGSGSGTEFTLTISSLQPDDFATYYCQQYSNYPPTFGGGTKLEIK
modifications: AlexaFluor-647 or pHAb dye label on amines; positions not defined
For B2, in [6], the cytoplasmic intensity of AF647-labelled antibody in H1975 cells, fold higher for RAA22/B09 DuetMab than for B09-IgG (FIG. 7B) was found to be 4.7 fold.

B3: RAA22/B09-57 DuetMab (bispecific antibody, human IgG1, kappa, lambda)
heavy 1: QVQLVQSGAEVKKPGSSVKVSCKASGGTFSDNDFSWVRQAPGQGLEWMGAIVAVFRTETYAQKFQDRVKITADISTRTTYMELSSLRSEDTAVYYCARRLMSAISGPGAPLLMWGQGTLVTVSSASTKGPSVFPLAPSSKSTSGGTAALGCLVKDYFPEPVTVSWNSGALTSGVHTFPAVLQSSGLYSLSSVVTVPSSSLGTQTYICNVNHKPSNTKVDKRVEPKSCDKTHTCPPCPAPELLGGPSCVFLFPPKPKDTLMISRTPEVTCVVVDVSHEDPEVKFNWYVDGVEVHNAKTKPREEQYNSTYRVVSVLTVLHQDWLNGKEYKCKVSNKALPAPIEKTISKAKGQPREPQVCTLPPSREEMTKNQVSLSCAVKGFYPSDIAVEWESNGQPENNYKTTPPVLDSDGSFFLVSKLTVDKSRWQQGNVFSCSVMHEALHNHYTQKSLSLSPGK
light 1: QSALTQPRSVSGSPGQSVTISCTGTSSDVGGYNYVSWYQQHPGKAPKLMIYDVSKRPSGVPDRFSGSKSGNTASLTISGLQAEDEADYYCSSYTSSDTLEIFGGGTKLTVLGQPKAAPSVTLFPPSSEELQANKATLVCLISDFYPGAVTVAWKADSSPVKAGVETTTPSKQSNNKYAASSYLSLTPEQWKSHRSYSCQVTHEGSTVEKTVAPTECS
heavy 2: QVQLVQSGAEVKKPGASVKVSCKASGYTFTDYYIHWVRQATGQGLEWMGWMNPNSGNTGYAQKFQGRVTMTRDTSISTAYMELSSLRSEDTAVYYCARGQGYTHSWGQGTMVTVSSASTKGPSVCPLAPSSKSTSGGTAALGCLVKDYFPEPVTVSWNSGALTSGVHTFPAVLQSSGLYSLSSVVTVPSSSLGTQTYICNVNHKPSNTKVDKRVEPKSVDKTHTCPPCPAPELLGGPSCVFLFPPKPKDTLMISRTPEVTCVVVDVSHEDPEVKFNWYVDGVEVHNAKTKPREEQYNSTYRVVSVLTVLHQDWLNGKEYKCKVSNKALPAPIEKTISKAKGQPREPQVYTLPPCREEMTKNQVSLWCLVKGFYPSDIAVEWESNGQPENNYKTTPPVLDSDGSFFLYSKLTVDKSRWQQGNVFSCSVMHEALHNHYTQKSLSLSPG
light 2: DIQMTQSPSTLSASVGDRVTITCRASEGIYHWLAWYQQKPGKAPKLLIYKASSLASGVPSRFSGSGSGTEFTLTISSLQPDDFATYYCQQYSNYPPTFGGGTKLEIKRTVAAPSVFIFPPCDEQLKSGTASVVCLLNNFYPREAKVQWKVDNALQSGNSQESVTEQDSKDSTYSLSSTLTLSKADYEKHKVYACEVTHQGLSSPVTKSFNRGEV
notes: Labelled with AlexaFluor-647 in the microscopy experiments; also called RAA22/B09-Maia; bispecific EGFR/cMET DuetMAb
B3 gave a fold higher binding than on H1975 cells in experiment [7] of 8.9 fold. In addition, the binding result with Mouse cMET (recombinant), in the experiment with HER4, with HER3 and with HER2 was “no binding (tested: 10 ug/ml)” each time. The MFI in experiment [8] was determined as 3.5e+06 MFI; in experiment [11], 3.1e+07 MFI. Besides, the Kd is 2.2 nM in experiment [9]; 2.2 nM in experiment [10]; 197 nM in [3]; 575 nM in experiment [4]; 45 nM in [5]. In addition, the koff (commonly the first-order rate constant of dissociation) was 0.000986 s⁻¹ in experiment [9]; 0.00212 s⁻¹ in experiment [10]; 0.00548 s⁻¹ in experiment [3]; 0.0206 s⁻¹ in experiment [4]; 0.00201 s⁻¹ in experiment [5]. For the same molecule, the kon (usually a measure of how fast the partners come together) in experiment [9] is 443000 M⁻¹ s⁻¹; in experiment [10] it was 974000 M⁻¹ s⁻¹; in experiment [3], 27800 M⁻¹ s⁻¹; in [4] it was 35400 M⁻¹ s⁻¹; in experiment [5], 44700 M⁻¹ s⁻¹.

These data come from patent US20240360226A1 (AstraZeneca / MedImmune, published 2024).
